From article PMC10755749

Key:
[1] = tested on: MPXV A29 protein (mpox virus); assay: SPR
[2] = tested on: VZV protein;anti-A29 IgG antibody (Varicella zoster virus;); assay: single-molecule nanopore; conditions: 5'-phosphate on aptamer probe, ligated into carrier
[3] = tested on: MPXV A29 protein;anti-A29 IgG antibody (mpox virus;); assay: single-molecule nanopore; conditions: 5'-phosphate on aptamer probe, ligated into carrier
anti-A29 IgG antibody = assay: single-molecule nanopore; conditions: 5'-phosphate on aptamer probe, ligated into carrier
[4] = tested on: VACV A27 protein;anti-A29 IgG antibody (Vaccinia virus (Copenhagen?);); assay: single-molecule nanopore; conditions: 5'-phosphate on aptamer probe, ligated into carrier
[5] = tested on: MPXV A29 protein;anti-A29 IgG antibody (mpox virus;); assay: single-molecule nanopore; conditions: 5'-phosphate on aptamer probe, ligated into carrier; remark: listed apart in the source
[6] = tested on: MPXV A29 protein;anti-A29 IgG antibody (mpox virus;); assay: single-molecule nanopore, Hill fit; conditions: 5'-phosphate on aptamer probe, ligated into carrier

Sequence | Kd [1] | other results
AGCACTCCACGCATAACCGGTGGGCGGGGGATGTGGGAAGGTATCGGGGTTGCGTTATGCGTGCTACCGT [HIM-A29-5] | 8.49 nM | –
AGCACTCCACGCATAACGGAGCCGGGGGGCCTTGGGGGATGCAGCTTCGAAGTGTTATGCGTGCTACCGT [HIM-A29-2] | 35.4 nM | –
AGCACTCCACGCATAACGGGGGAGGAGGAGGATGTTATTGGGTGGGCGGGTTTGTTATGCGTGCTACCGT [HIM-A29-4] | 18.6 nM | –
AGCACTCCACGCATAACGGGGGAGGAGGAGGTTCACTTTGGGCGGGTGGGAATGTTATGCGTGCTACCGT [HIM-A29-3] | 12.4 nM | –
AGCACTCCACGCATAACGGGGTCTGGTGGTCTGGCTGGTTTGGGGGTTTGGTCGTTATGCGTGCTACCGT [HIM-A29-1] | 10.8 nM | –
CACGCATAACGTCTTGCGGGGCGGCGGGTTGAGAGGATGTCGGGTGGTTATGCGTG [HIM-A29-6] | < 10 nM | –
CACTGCGCCGGTATCGATATATTTTTTCACGCATAACGTCTTGCGGGGCGGCGGGTTGAGAGGATGTCGGGTGGTTATGCGTG / AAACCACTCAAGTTTGCCAACCAAATGTATATCGATACCGGCGCAGTG [9.1 kbp DNA molecular probe with HIM-A29-6] | – | binding signal (% events with subpeak) [2]: 0; binding signal (% events with subpeak) [3]: 3.98; binding signal (% events with subpeak) (anti-A29 IgG antibody): 0.01; binding signal (% events with subpeak) [4]: 0.01; binding signal (% events with subpeak) [5]: 3.98; Kd [6]: 0.0823 nM
